According to article PMC5658042 (Methods (San Diego, Calif.), 2017):

Target: Drosophila melanogaster Dicer-2 (dmDcr-2), OSF tag removed (Drosophila melanogaster, UniProt A1ZAW0 1-1722)
Experiment: cross-linking

Drosophila melanogaster Dicer-2 (dmDcr-2), OSF tag removed, sequence (A1ZAW0 whole entry): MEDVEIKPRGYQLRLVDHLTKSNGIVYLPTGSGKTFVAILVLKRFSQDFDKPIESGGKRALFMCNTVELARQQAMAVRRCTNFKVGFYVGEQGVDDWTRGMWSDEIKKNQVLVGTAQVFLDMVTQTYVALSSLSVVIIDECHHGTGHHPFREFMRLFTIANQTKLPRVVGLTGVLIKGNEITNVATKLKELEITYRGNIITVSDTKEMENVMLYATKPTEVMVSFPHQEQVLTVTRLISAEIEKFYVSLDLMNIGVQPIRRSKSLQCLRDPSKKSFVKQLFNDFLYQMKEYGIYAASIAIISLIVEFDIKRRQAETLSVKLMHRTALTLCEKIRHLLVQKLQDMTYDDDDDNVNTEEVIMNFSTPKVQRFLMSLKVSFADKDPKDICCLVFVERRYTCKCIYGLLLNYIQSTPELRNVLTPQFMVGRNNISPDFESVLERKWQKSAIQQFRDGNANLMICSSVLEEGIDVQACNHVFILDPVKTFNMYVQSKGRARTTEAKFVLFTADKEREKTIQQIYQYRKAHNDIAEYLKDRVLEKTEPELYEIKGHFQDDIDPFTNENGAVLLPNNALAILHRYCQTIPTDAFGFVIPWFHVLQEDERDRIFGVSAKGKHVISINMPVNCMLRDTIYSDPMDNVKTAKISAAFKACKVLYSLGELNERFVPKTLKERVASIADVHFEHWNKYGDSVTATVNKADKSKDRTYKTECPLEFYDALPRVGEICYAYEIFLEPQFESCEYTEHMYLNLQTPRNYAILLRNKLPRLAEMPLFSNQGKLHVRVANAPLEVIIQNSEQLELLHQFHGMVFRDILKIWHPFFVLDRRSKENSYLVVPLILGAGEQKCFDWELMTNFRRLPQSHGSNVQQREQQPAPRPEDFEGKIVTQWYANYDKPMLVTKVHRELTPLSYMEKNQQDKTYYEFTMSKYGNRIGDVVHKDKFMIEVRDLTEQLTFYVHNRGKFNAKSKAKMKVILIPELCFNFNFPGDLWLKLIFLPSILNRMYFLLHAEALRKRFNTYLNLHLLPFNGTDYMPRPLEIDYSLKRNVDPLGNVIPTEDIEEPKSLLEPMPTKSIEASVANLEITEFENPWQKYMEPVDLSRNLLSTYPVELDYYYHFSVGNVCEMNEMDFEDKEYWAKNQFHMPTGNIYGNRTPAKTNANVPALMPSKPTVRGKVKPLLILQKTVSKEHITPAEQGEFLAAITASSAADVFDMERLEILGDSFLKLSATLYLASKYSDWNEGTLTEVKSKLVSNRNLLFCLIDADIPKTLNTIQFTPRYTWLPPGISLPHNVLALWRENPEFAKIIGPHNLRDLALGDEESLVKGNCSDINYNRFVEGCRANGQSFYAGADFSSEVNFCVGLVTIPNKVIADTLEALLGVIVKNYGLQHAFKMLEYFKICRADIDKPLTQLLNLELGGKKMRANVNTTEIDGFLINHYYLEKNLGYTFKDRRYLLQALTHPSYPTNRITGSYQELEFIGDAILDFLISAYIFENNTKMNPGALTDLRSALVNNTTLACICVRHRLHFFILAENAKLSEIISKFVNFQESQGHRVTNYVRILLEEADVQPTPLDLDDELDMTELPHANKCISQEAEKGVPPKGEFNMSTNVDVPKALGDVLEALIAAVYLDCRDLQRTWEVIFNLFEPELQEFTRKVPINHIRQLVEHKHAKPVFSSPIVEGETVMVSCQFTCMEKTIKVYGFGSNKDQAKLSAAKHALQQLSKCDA

B1: Loquacious-PD (Loqs-PD), OSF tag removed (natural protein, Drosophila melanogaster, UniProt Q9VJY9-4 1-359, looked up)
chain: MDQENFHGSSLPQQLQNLHIQPQQASPNPVQTGFAPRRHYNNLVGLGNGNAVSGSPVKGAPLGQRHVKLKKEKISAQVAQLSQPGQLQLSDVGDPALAGGSGLQGGVGLMGVILPSDEALKFVSETDANGLAMKTPVSILQELLSRRGITPGYELVQIEGAIHEPTFRFRVSFKDKDTPFTAMGAGRSKKEAKHAAARALIDKLIGAQLPESPSSSAGPSVTGLTVAGSGGDGNANATGGGDASDKTVGNPIGWLQEMCMQRRWPPPSYETETEVGLPHERLFTIACSILNYREMGKGKSKKIAKRLAAHRMWMRLQETPIDSGKISDSICGELEGEVSIIQDIDRYEQVSKDFEFIKI
modifications: mono-phosphorylated (intact-mass ESI/MS shows a phospho and a dephosphorylated species); putative site assigned to the motif 213-SPSSS-217
stoichiometry N: 1
